Experimental data: the DeepSol protein solubility set

Experiment: soluble on expression in E. coli; label from the status in PepcDB or PDB records

Row | Sequence | soluble on expression in E. coli
1 | SHMALRIIPCLDIDGGAKVVVKGVNFQGIREVGDPVEMAVRYEEEGADEIAILDITAAPEGRATFIDSVKRVAEAVSIPVLVGGGVRSLEDATTLFRAGADKVSVNTAAVRNPQLVALLAREFGSQSTVVAIDAKWNGEYYEVYVKGGREATGLDAVKWAKEVEELGAGEILLTSIDRDGTGLGYDVELIRRVADSVRIPVIASGGAGRVEHFYEAAAAGADAVLAASLFHFRVLSIAQVKRYLKERGVEVRI | soluble
2 | SIAILVIMHGESTASSMVNVANTLLDCNHAVAINMGLEDRVQDILVQAVEIANKIDKGKGILILTDMGSILTFAKVIRDATGKEVKAIDMVSTPIVIEATRKALTPEMTLEKLYFNIIESIKKHYGDMEVTYAEKDNGGRY | not soluble
3 | SISTARVPADKPVRIAFSLNDASDDTPPEDSIPLVFPELDQQLQPLPPCHDSEESMEVFKQHCQIAEEYHEVKKEITLLEQRKKELIAKLDQAEKEKVDAAELVREFEALTEENRTLRLAQSQCVEQLEKLRIQYQKRQGSS | soluble
4 | SKDFTWEVGYNITWNDSKITKLTTTFNPDYQGIDAGTNQKHQVGEMPGTFYLYQQVYDENGKPIQNAFVDRNNDGQITEADRYLTHKSPMAKVYMGFSSQFSYKKWDLGFNLRANFGNYVYNGVASGNSTSNNYGGKGFVTNLYNGFQDTGFTLLNTSEQMASDYFLENASFLKMDNITLGYSFQNLFAAKLSGRISASVQNVFTISKYSGLDPECGAIDSNIWPRPRTYTIGLNLNF | not soluble
5 | SKLPKGTRSSVYFAQHPEKEPLPSRQEVKQTPVIMAKIKGPGPAKYLRPSCTGYIDHDISMFKAPAYTLHSRHSEKRMVCHSSPGPCYLLDPKITRFGMSSCPQVPMEERISNLRLNPTLASCQYYFEKIHPPGERRAPQYTFGYRRPYRVMDLNPAPNQYQMPLLLGPNTPVSRAAPCYSLASRDKNWFYKEDVAGGPGPTTYARPEPSIYQNRSPTYSMAKRFAYPLDLTPRPGPGSHEVQQVTVHKPHIPAFTMGIKHSLHLCPLVIDIRD | not soluble
6 | SKNEKEQLSKAKASVSSLNKVIQTKLTVGNLGLGLVVIQNGPYLQISHLINKGAAASDGILQPGDVLISVGHANVLGYTLREFLKLLQNITIGTVLQIKAYRGFLEIPQEWQD | soluble
7 | SKQESAAPNTPPTSQSPTPSAQFPRNDGDPQALWIFGYGSLVWRPDFAYSDSRVGFVRGYSRRFWQGDTFHRGSDKMPGRVVTLLEDHEGCTWGVAYQVQGEQVSKALKYLNVREAVLGGYDTKEVTFYPQDAPDQPLKALAYVATPQNPGYLGPAPEEAIATQILACRGFSGHNLEYLLRLADFMQLCGPQAQDEHLAAIVDAVGTMLPCFCPTEQALALV | soluble
8 | SLAHIVTLNTPLREDWLAQLADVVTNPDELLHLLQIEADENLRAGQDARRLFALRVPRAFIARMEKGNPDDPLLRQVLTSRDEFIVAPGFSTDPLEEQHSVVPGLLHKYQNRALLLVKGGCAVNCRYCFRRHFPYAENQGNKRNWTVALEYIAAHPELDEIIFSGGDPLMAKDHELDWLLTQLEAIKHVKRLRIHSRLPIVIPARITDELVARFDQSRLQILLVNHINHANEVDEAFGLAMKKLRHVGVTLLNQSVLLRGVNDNARTLANLSNALFDAGVMPYYLHVLDKVQGAAHFMVTDDEARQIMRELLTLVSGYMVPRLAREIGGEPSKTPLDLQLRQC | not soluble
9 | SLAHVGTWDWDITNETLAWTDETYRIFGVKPQEFKATYEAFLFYIHADDRQAVIDAVNDAINNDSSYSIKHRVIRPSGEIREVLEKGQVLRDENGKASRIIGAVLDIT | not soluble
10 | SLDAEKQLANITMGLPLSPAADSARSARHALSLIATARPPAFITTIAKEVHRHTALAANTQSQQSIHTTTLARAKGEILRVIEILIEKMPTDVVDLLVEVMDIIMYCLEGSLVKKKGLQECFPAICRFYMVSYYERSHRIAVGARHGSVALYDIRTGKCQTIHGHKGPITAVSFAPDGRYLATYSNTDSHISFWQMNTSLLGSIGMLNSAPQLRCIKTYQVPPVQPASPGSHNALKLARLIWTSNRNVILMAHDGKEHRFMV | soluble
11 | SLDLNDTYSGKREPFSGDHSADGFEVTSRSEMSSGSEISPVSEMPSSSEPSSGADYDYSEEYDNEPQIPGYIVDDSVRVEQVVKPPQNKTESENTSDKPKRKKKGGKNGKNRRNRKKKNPCNAEFQNFCIHGECKYIEHLEAVTCKCQQEYFGERCGEKSMKTHSMIDSSEG | not soluble
